In article PMC7156504:
Changes are numbered by the printed parent chain. Numbers in names are those of the source.

B1: scFvWFL, single chain variant (scFv) of MEDI1912 (scFv, V domains shown)
VH: QVQLVQSGAEVKKPGSSVKVSCKASGGTFWFGAFTWVRQAPGQGLEWMGGIIPIFGLTNLAQNFQGRVTITADESTSTVYMELSSLRSEDTAVYYCARSSRIYDLNPSLTAYYDMDVWGQGTMVTVSS
VL: QSVLTQPPSVSAAPGQKVTISCSGSSSDIGNNYVSWYQQLPGTAPKLLIYDNNKRPSGIPDRFSGSKSGTSATLGITGLQTGDEADYYCGTWDSSLSAWVFGGGTKLTVL
B2: scFvSTT, scFv of MEDI1912 with W35S, F36T and L64T in VH (scFv, V domains shown)
VH: B1 VH with W30S, F31T, L57T
VL: B1 VL

Key:
[1] = biological target: scFvWFL, single chain variant (scFv) of MEDI1912 (human); assay: cross-linking; scFv 15 µM in 100 mM sodium phosphate pH 7.4, d0/d4-BS3 (50:50) at 50x, 100x, 200x and 500x molar excess, 30 min at 25 °C; SDS-PAGE densitometry and LC-MS/MS of the dimer bands
[2] = biological target: scFvSTT, scFv of MEDI1912 with W35S, F36T and L64T in VH (human); assay: as above

Row | Binder | percent incorporated into higher-order oligomers [1] | percent remaining monomeric [2]
1 | B1 | 45% | –
2 | B2 | – | 99%
